Among the data in article PMC7573561 are Kd values, retold here.

The target in the test is Actin (coated on BLI biosensors). Nature of the test: BLI; Octet RED, 25 C; APS (aminopropylsilane) biosensors coated with 10 ug/mL actin; rPDCP-1 in PBS pH 7.4 with 0.05% Tween 20 and 0.1% BSA; 300 s association, 120 s dissociation.

As usually defined, the Kd is the constant that tells how readily two partners part at equilibrium. Regarding “Recombinant PDZ-domain-containing-protein-1 (rPDCP-1) (natural protein)”, the Kd was determined as 783 nM.
